Experimental findings from publication PMC7819272 are described below.

In the test the target is HLA-DR3 (HLA-DRβ1-Arg74 positive) on the surface of VAVY cells (human (endogenous in VAVY)). Put plainly: flow cytometry on cells.

Where no end group is shown, it is not given here. The star is where a group is joined. Biotin = O=C1N[C@H]2[C@H](CS[C@H]2CCCCC(=O)*)N1

Biotin-GIFNTGLKMFPDLTKVYST [TSHR132–150 peptide, biotinylated] yielded a percent binding to DRβ-Arg74-positive cells at 10 μM peptide of 5.1%, a percent binding to DRβ-Arg74-positive cells at 20 μM peptide of 21.7% and a percent binding to DRβ-Arg74-positive cells at 50 μM peptide of 51%.

As to Biotin-FNGTKLDAVYLNKNKYLTVI [TSHR197–216 peptide, biotinylated], the percent binding to DRβ-Arg74-positive cells at 10 μM peptide worked out at 14.7%, the percent binding to DRβ-Arg74-positive cells at 20 μM peptide turned out to be 19.4% and the percent binding to DRβ-Arg74-positive cells at 50 μM peptide came out at 72.9%.
